Several values for one entry are separate records, joined by “and”; a condition that tells them apart may be missing. Equal values may be shown once.
Details: pH 7, Thermal, CD, Phosphate 50 mM, whole UniProt chain shown

B1: Cytochrome c-552 wild type, P15452 (protein)
chain: MKKFLLVAVVGLAGITFANEQLAKQKGCMACHDLKAKKVGPAYADVAKKYAGRKDAVDYLAGKIKKGGSGVWGSVPMPPQNVTDAEAKQLAQWILSIK
For B1, the “unfolding enthalpy (van 't Hoff)” value (Hydrogenobacter thermophilus (strain DSM 6534 / IAM 12695 / TK-6), 25 °C) was 56.3 kcal/mol and 64.2 kcal/mol and the “unfolding enthalpy (van 't Hoff)” value (Hydrogenobacter thermophilus (strain DSM 6534 / IAM 12695 / TK-6)) was 109 kcal/mol and 140 kcal/mol.

B2: Cytochrome c-551 wild type, P00099 (protein)
chain: MKPYALLSLLATGTLLAQGAWAEDPEVLFKNKGCVACHAIDTKMVGPAYKDVAAKFAGQAGAEAELAQRIKNGSQGVWGPIPMPPNAVSDDEAQTLAKWVLSQK
For B2, the unfolding free energy (Pseudomonas aeruginosa (strain ATCC 15692 / DSM 22644 / CIP 104116 / JCM 14847 / LMG 12228 / 1C / PRS 101 / PAO1), 25 °C) was 7.7 kcal/mol and 19.5 kcal/mol and the “unfolding enthalpy (van 't Hoff)” value (Pseudomonas aeruginosa (strain ATCC 15692 / DSM 22644 / CIP 104116 / JCM 14847 / LMG 12228 / 1C / PRS 101 / PAO1)) was 70.5 kcal/mol and 159 kcal/mol.

— FireProtDB (doi:10.1021/ja046667t)
